# Experimental data from patent US20200299395A1 (MOGAM INSTITUTE FOR BIOMEDICAL RESEARCH, published 2020).
# What was measured:
# [1] = molecular target: BCMA expressed on multiple myeloma cell lines H929 and MM1S (UniProt Q02223); test: flow cytometry, H929 cells, negative control without VH-Fc protein [B), H929 table]
# [2] = molecular target: BCMA expressed on multiple myeloma cell lines H929 and MM1S (UniProt Q02223); test: flow cytometry, MM1S cells, negative control without VH-Fc protein [B), MM1S table]
# [3] = molecular target: BCMA expressed on multiple myeloma cell lines H929 and MM1S (UniProt Q02223); test: flow cytometry, MM1S cells, negative control without VH domain [B), MM1S table]
# [4] = molecular target: BCMA expressed on multiple myeloma cell lines H929 and MM1S (UniProt Q02223); test: flow cytometry, H929 cells, negative control without VH domain [B), H929 table]
# [5] = molecular target: T1, BCMA expressed on multiple myeloma cell lines H929 and MM1S (UniProt Q02223 1-184, limits assumed); test: flow cytometry, H929 cells, purified VH domain (text: 1 uM); control iso_anti-His-PE Mean 13.5 [B), H929 table]
# T1 construct: whole, on cells; Endogenous BCMA on tumour cell lines; also called BMCA; cell surface BCMA
# T1 sequence (looked up): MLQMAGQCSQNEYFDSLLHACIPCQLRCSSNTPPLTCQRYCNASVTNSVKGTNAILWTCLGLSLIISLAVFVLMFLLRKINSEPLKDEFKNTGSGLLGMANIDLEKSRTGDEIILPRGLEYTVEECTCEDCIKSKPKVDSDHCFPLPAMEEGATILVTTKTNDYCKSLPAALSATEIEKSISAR
# Procedure: (§1) Multiple myeloma cells in culture were placed in a 50 ml tube and centrifuged at 1,000 rpm for 5 minutes at room temperature. Then, the culture solution was discarded and washing with PBS was performed once. The resultant was suspended in FACS buffer and then transferred to a round bottom tube. Centrifugation was performed at 2,000 rpm for 3 minutes at room temperature. The supernatant was discarded and loosening was performed with FACS buffer so as to obtain 1×10⁶ cells/100 μl. Then, 1 uM of the purified candidate antibody was added thereto at 4° C.
# (§2) As a control, FACS buffer containing no candidate antibody was added. After 30 minutes, washing with FACS buffer was performed twice. […] The cells were collected by centrifugation at 2,000 rpm for 3 minutes, and then 200 μl of fixation buffer was added thereto. The cells were resuspended and measured by FACS Calibur™. The results are illustrated in FIGS. 4 and 5.
# [6] = molecular target: T1, BCMA expressed on multiple myeloma cell …; test: flow cytometry, MM1S cells, purified VH domain (text: 1 uM); control iso_anti-His-PE Mean 4.19 [B), MM1S table]
# Procedure: as §1, §2
# [7] = molecular target: T1, BCMA expressed on multiple myeloma cell …; test: flow cytometry, H929 cells, purified VH domain (text: 1 uM); control iso_anti-His-PE Median 10.8 [B), H929 table]
# Procedure: as §1, §2
# [8] = molecular target: T2, recombinant human BCMA (Cat. No. 193-BC, R&D Systems) (human, UniProt Q02223 1-54); test: BLI (Octet), BCMA fixed on Anti-Fc Biosensor, antibody 0.078 to 5 nM
# T2 sequence (looked up): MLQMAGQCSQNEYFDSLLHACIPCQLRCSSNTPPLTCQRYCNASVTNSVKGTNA
# Procedure: Among the selected 20 clones, Clones MN1, MN5, MN7, and MN8 which were expected to have excellent binding capacity to BCMA-expressing tumor cell lines were purified. Quantitative binding capacity (affinity) of Clones MN1, MN5, MN7, and MN8 to recombinant human BCMA was measured using the OCTET system (Pall Corporation). BCMA (Cat. No. 193-BC, R&D Systems) purified from HEK293 cells was fixed to Biosensor (Pall Corporation). Then, the MN1, MN5, MN7, or MN8 antibody diluted sequentially in Kinetic bfr (Pall Corporation) was allowed to associate in a concentration range of 0.078 nM to 5 nM for 120 seconds, and was allowed to dissociate by performing flowing at a flow rate of 30 μl/min for 1,800 seconds. Dissociation of the BCMA-bound antibody was induced by flowing 10 mM glycine-HCl pH 1.5 at a flow rate of 30 μl/min for 30 seconds (Table 3). The binding affinity was obtained as the kinetic parameters (Kon and Koff) and the equilibrium dissociation constant (KD) using the Octet system data analysis software (Table 4).
# [9] = molecular target: T1, BCMA expressed on multiple myeloma cell …; test: flow cytometry, MM1S cells, purified VH domain (text: 1 uM); control iso_anti-His-PE Median 3.74 [B), MM1S table]
# Procedure: as §1, §2
# [10] = molecular target: T1, BCMA expressed on multiple myeloma cell …; test: flow cytometry, MM1S cells, purified VH-Fc protein, 100nM per the sample name; control anti-hFc-PE Median 2.50 [B), MM1S table]
# [11] = molecular target: T1, BCMA expressed on multiple myeloma cell …; test: flow cytometry, H929 cells, purified VH-Fc protein, 100nM per the sample name; control anti-hFc-PE Median 4.82 [B), H929 table]
# [12] = molecular target: T1, BCMA expressed on multiple myeloma cell …; test: flow cytometry, H929 cells, purified VH-Fc protein, 100nM per the sample name; control anti-hFc-PE Mean 5.41 [B), H929 table]
# [13] = molecular target: T1, BCMA expressed on multiple myeloma cell …; test: flow cytometry, MM1S cells, purified VH-Fc protein, 100nM per the sample name; control anti-hFc-PE Mean 2.81 [B), MM1S table]
Molecule,Mean FL2-H [5],Mean FL2-H [6],Median FL2-H [7],Kd [8] [nM],Median FL2-H [9],Median FL2-H [10],Median FL2-H [11],Mean FL2-H [12],Mean FL2-H [13],further results
anti-hFc-PE (antibody),,,,,,,,,,Mean FL2-H [1]: 5.41; Median FL2-H [1]: 4.82; Mean FL2-H [2]: 2.81; Median FL2-H [2]: 2.5
iso_anti-His-PE (antibody),,,,,,,,,,Mean FL2-H [3]: 4.19; Median FL2-H [3]: 3.74; Mean FL2-H [4]: 13.5; Median FL2-H [4]: 10.8
"Clone MN8 (VH domain) (VHH, Single-domain antibody: a VH domain from a synthetic phage library, not camelid; Expressed in E. coli) VHH: EVQLVESGGGLVQPGGSLRLSCAASGFTFSSYAMGWVRQAPGKGPEVVSLISGSGGSTWYDDSVKGRFTISRDNSKNTLYLQMNSLRAEDTAVYYCASPEDAPSYSRWGQGTLVTVSS",15.1,4.93,12.9,1.17,4.43,,,,,
"MN8 VH-Fc protein (Fc fusion, VH domain fused to a human IgG1 Fc domain; not shown: human IgG1 Fc domain) EVQLVESGGGLVQPGGSLRLSCAASGFTFSSYAMGWVRQAPGKGPEVVSLISGSGGSTWYDDSVKGRFTISRDNSKNTLYLQMNSLRAEDTAVYYCASPEDAPSYSRWGQGTLVTVSS",,,,,,2.77,10.3,14,3.13,
"Clone MN5 (VH domain) (VHH, Single-domain antibody: a VH domain from a synthetic phage library, not camelid; Expressed in E. coli) VHH: EVQLVESGGGLVQPGGSLRLSCAASGFTFSSYAMGWVRQAPGKGPEVVSLISGSGGSTWYDDSVKGRFTISRDNSKNTLYLQMNSLRAEDTAVYYCASREDNMTTWGQGTLVTVSS",25.6,13.9,22.9,2.22,9.81,,,,,
"Clone MN7 (VH domain) (VHH, Single-domain antibody: a VH domain from a synthetic phage library, not camelid; Expressed in E. coli) VHH: EVQLVESGGGLVQPGGSLRLSCAASGFTFSSYAMGWVRQAPGKGPEVVSLISGSGGSTWYDDSVKGRFTISRDNSKNTLYLQMNSLRAEDTAVYYCASPEDMYQTWGQGTLVTVSS",14.8,5.38,11.8,2.23,4.49,,,,,
"MN5 VH-Fc protein (Fc fusion, VH domain fused to a human IgG1 Fc domain; not shown: human IgG1 Fc domain) EVQLVESGGGLVQPGGSLRLSCAASGFTFSSYAMGWVRQAPGKGPEVVSLISGSGGSTWYDDSVKGRFTISRDNSKNTLYLQMNSLRAEDTAVYYCASREDNMTTWGQGTLVTVSS",,,,,,2.64,7.78,10.6,3.02,
"MN7 VH-Fc protein (Fc fusion, VH domain fused to a human IgG1 Fc domain; not shown: human IgG1 Fc domain) EVQLVESGGGLVQPGGSLRLSCAASGFTFSSYAMGWVRQAPGKGPEVVSLISGSGGSTWYDDSVKGRFTISRDNSKNTLYLQMNSLRAEDTAVYYCASPEDMYQTWGQGTLVTVSS",,,,,,2.55,7.92,10.1,2.89,
"Clone MN1 (VH domain) (VHH, Single-domain antibody: a VH domain from a synthetic phage library, not camelid; Expressed in E. coli) VHH: EVQLVESGGGLVQPGGSLRLSCAASGFTFTAYDMGWVRQAPGKGPEWVSLISSDSGDTWYDDSVKGRFTISRDNSKNTLYLQMNSLRAEDTAVYYCARLGAYSTTYDYWGQGTLVTVSS",62.9,24,50.4,0.7,14.3,,,,,
"MN1 VH-Fc protein (Fc fusion, VH domain fused to a human IgG1 Fc domain; not shown: human IgG1 Fc domain) EVQLVESGGGLVQPGGSLRLSCAASGFTFTAYDMGWVRQAPGKGPEWVSLISSDSGDTWYDDSVKGRFTISRDNSKNTLYLQMNSLRAEDTAVYYCARLGAYSTTYDYWGQGTLVTVSS",,,,,,42.1,101,134,49.9,
